This passage reports stoichiometry N results from article PMC3753655.

In this test the target is His6-MS2 coat protein (bacteriophage MS2) (UniProt P03612). The test can be described thus: SEC; Superose 6 (10/300 GL); supernatants of crude cell extracts of E. coli JM101 expression cultures; 50 mM Tris-HCl pH 7.5, 300 mM NaCl; with or without benzonase treatment; reference proteins 669, 400 and 29 kDa.

Take “His6-MS2 coat protein (from UniProt P03612 1-130) (natural protein)”: the stoichiometry N was determined as 2.
